{
  "source": "patent US20080182978A1",
  "about": "“ANTI-NGF ANTIBODIES AND METHODS USING SAME” (RINAT NEUROSCIENCE CORP, priority 2002, published 2008)",
  "key": {"[1]": {"system": "complete Freund's adjuvant (CFA)-induced chronic arthritis", "experiment": "CFA-induced chronic arthritis in rats, vocalization test (Example 7)", "type": "in vivo, rat", "description": "The analgesic effects of anti-NGF antibody, 911 (see Hongo et al., Hybridoma 19(3):215-227 (2000)) in complete Freund's adjuvant (CFA)-induced chronic arthritis in rats were investigated using the vocalization test, in comparison with indomethacine used as reference substance.\nFifty (50) male Lewis rats (LEWIS LEW/Crl Ico) (Charles River Belgium) weighing 150 g to 220 g at the beginning of the experimental phase were included in this study. […]\nOn day 0 (D0), arthritis was induced in rats by intradermal injection into the tail of 0.05 ml of a Mycobacterium butyricum (Difco, USA) suspension in mineral oil (10 mg/ml). On day 14 (D14), arthritic rats were included in the study according to their ability to vocalize upon gentle flexion of the hindpaw and by their arthritis index, evaluated using an inflammation score for each hind and forepaw (see Kuzuna et al., Chem. Pharm. Bull. (Tokyo) 23:1184-1191 (1975); Pearson et al., Arthritis Rheum. 2:440-459 (1959)). Animals were scored based on the following criteria: Score 0: normal aspect; Score 1: erythema; Score 2: erythema with slight edema; Score 3: strong inflammation without ankylosis; Score 4: ankylosis. […]\nFour groups of 10 rats each were included in the study. […] On day 18 (D18), the nociceptive intensity was evaluated by gentle flexion of the hindpaw and the intensity of the level of vocalization was recorded for each animal. […]"}, "[2]": {"system": "post-surgical resting pain (paw incision)", "experiment": "Post-surgical pain model, cumulative resting pain score", "type": "in vivo, rat"}, "human NGF": {"target": "human NGF (Homo sapiens, UniProt P01138)", "sequence (P01138 122-241)": "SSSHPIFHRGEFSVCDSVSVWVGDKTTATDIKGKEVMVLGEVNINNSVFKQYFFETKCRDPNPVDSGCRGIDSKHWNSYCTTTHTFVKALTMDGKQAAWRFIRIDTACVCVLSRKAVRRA", "experiment": "Mouse E13.5 trigeminal neuron survival assay, human NGF", "type": "cell-based", "conditions": "0.4 ng/ml human NGF (saturating); 0.00128-20 nM", "protocol": "The ability of Fab E3 or full antibody E3 to block NGF activity was evaluated by measurement of the capacity of the antibody to inhibit NGF-dependent survival of mouse E13.5 trigeminal neurons in vitro. The trigeminal ganglion is comprised of cutaneous sensory neurons that innervate the facial region. The survival of mouse E13.5 trigeminal neurons is a sensitive assay to evaluate the NGF-blocking activity of anti-NGF antagonist antibodies because NGF is required to support survival of these neurons. For example, at saturating concentrations of NGF, the survival is close to 100% by 48 hours in culture. By contrast, less than 5% of the neurons survive by 48 hours in absence of NGF.\nThe survival assay was conducted as follows: time-mated pregnant Swiss Webster female mice were euthanized by CO2 inhalation. The uterine horns were removed and the embryos at embryonic stage E13.5 were extracted and decapitated. The trigeminal ganglia were dissected using electrolytically sharpened tungsten needles. The ganglia were then trypsinized, mechanically dissociated and plated at a density of 200-300 cells per well in defined, serum-free medium in 96-well plates coated with poly-L-ornithine and laminin.\nAfter 48 hours in culture, the cells were subjected to an automated immunocytochemistry protocol performed on a Biomek FX liquid handling workstation (Beckman Coulter) as follows: fixation using 4% formaldehyde, 5% sucrose, and PBS; permeabilization using 0.3% Triton X-100 in PBS); blocking of unspecific binding sites using 5% normal goat serum, 0.11% BSA in PBS; and sequential incubation with a primary and secondary antibodies to detect neurons. The primary antibody was rabbit polyclonal antibody against the protein gene product […] (PGP9.5, Chemicon), an established neuronal phenotypic marker. The secondary antibody was Alexa Fluor 488 goat anti-rabbit (Molecular Probes), together with the nuclear dye Hoechst 33342 (Molecular Probes) to label the nuclei of all the cells present in the culture. […]"}},
  "note": "“Also recorded” adds a separate entry of the source.",
  "data": [
    {"molecule": "COc1ccc2c(c1)c(CC(=O)O)c(C)n2C(=O)c1ccc(Cl)cc1", "note": "[Indomethacin, reference compound]", "values": [
      {"measurement": "Nociceptive intensity", "setting": "[1]; 10 mg/kg orally at D18, measured one hour after dosing", "result": "145.8 ± 29.9", "unit": "mV"},
      {"measurement": "% variation of nociceptive intensity vs vehicle-treated group", "setting": "[1]; 10 mg/kg orally at D18, one hour after dosing", "result": "−85", "unit": "%"}
    ]},
    {"molecule": "E3: humanized, affinity matured anti-NGF antagonist antibody; variable regions SEQ ID NO:1 and 2; human IgG2a (A330P331 to S330S331), kappa (antibody, V domains shown, human IgG2a constant (A330S/P331S) and kappa constant missing) VH: QVQLQESGPGLVKPSETLSLTCTVSGFSLIGYDLNWIRQPPGKGLEWIGIIWGDGTTDYNSAVKSRVTISKDTSKNQFSLKLSSVTAADTAVYYCARGGYWYATSYYFDYWGQGTLVTVS VL: DIQMTQSPSSLSASVGDRVTITCRASQSISNNLNWYQQKPGKAPKLLIYYTSRFHSGVPSRFSGSGSGTDFTFTISSLQPEDIATYYCQQEHTLPYTFGQGTKLEIKRT", "values": [
      {"measurement": "resting pain (cumulative pain score)", "setting": "[2]; 0.5 mg/kg i.v. two hours after surgery, assessed 24 hours after surgery", "result": "effectively alleviated post-surgical pain; also recorded: reduced resting pain"},
      {"measurement": "resting pain (cumulative pain score)", "setting": "[2]; 0.02 to 1 mg/kg i.p. 15 hours pre-incision, 24 hours after surgery, vs saline", "result": "significantly reduced resting pain"},
      {"measurement": "inhibition of NGF-dependent survival compared with antibody 911 and trkA immunoadhesin", "setting": "human NGF", "result": "blocked NGF significantly better than either mouse monoclonal anti-NGF antibody 911 or the trkA immunoadhesin"}
    ]}
  ]
}
